We go through 6 molecules from article PMC7195491 (2020).

As usually defined, the Kd is a measure of binding affinity in units of concentration. High values mean a looser complex, low ones a tighter complex.

T1: DIP-α (Drosophila melanogaster)
T1 chain: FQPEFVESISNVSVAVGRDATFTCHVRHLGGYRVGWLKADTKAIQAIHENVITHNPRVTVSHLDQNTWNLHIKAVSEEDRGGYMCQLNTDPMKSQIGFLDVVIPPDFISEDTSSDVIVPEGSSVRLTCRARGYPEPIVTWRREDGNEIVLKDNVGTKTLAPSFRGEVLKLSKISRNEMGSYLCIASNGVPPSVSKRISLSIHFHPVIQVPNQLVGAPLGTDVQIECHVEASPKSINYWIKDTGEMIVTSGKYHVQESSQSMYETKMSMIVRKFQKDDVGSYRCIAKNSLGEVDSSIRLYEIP

B1: Dpr11 K31V (domain or fragment)
chain: PYLDGYATSNVTTQIGTHAYLPCRVKQLGNKSVSWIRLRDGHILTVDRAVFIADQRFLAIKQPDKYWTLQIKYVQARDAGSYECQVSTEPVVSARVQLQVVVPRTEILGEPDRYVKAGSNVVLRCIVRGALEPPTFIMWYHGAEQLAADSRRHRTQLDPNLPEASGEGQSTIGSLIIESAKKRDTGNYTCSPSNSPSATVT
B2: Dpr11 K31V,E29Q (domain or fragment)
chain: PYLDGYATSNVTTQIGTHAYLPCRVKQLGNKSVSWIRLRDGHILTVDRAVFIADQRFLAIKQPDKYWTLQIKYVQARDAGSYECQVSTQPVVSARVQLQVVVPRTEILGEPDRYVKAGSNVVLRCIVRGALEPPTFIMWYHGAEQLAADSRRHRTQLDPNLPEASGEGQSTIGSLIIESAKKRDTGNYTCSPSNSPSATVT
B3: Dpr11 (domain or fragment)
chain: PYLDGYATSNVTTQIGTHAYLPCRVKQLGNKSVSWIRLRDGHILTVDRAVFIADQRFLAIKQPDKYWTLQIKYVQARDAGSYECQVSTEPKVSARVQLQVVVPRTEILGEPDRYVKAGSNVVLRCIVRGALEPPTFIMWYHGAEQLAADSRRHRTQLDPNLPEASGEGQSTIGSLIIESAKKRDTGNYTCSPSNSPSATVT
B4: Dpr10 V31K Q29E (domain or fragment)
chain: YQRQSVSNNNHNNAEAKPTHAPPSHYPHGHKWNEPYFDLTMPRNITSLVGKSAYLGCRVKHLGNKTVAWIRHRDLHILTVGTYTYTTDQRFQTSYHRDIDEWTLQIKWAQQRDAGVYECQISTEPKRSYSVNLNIVDLIDAETSDIMQQYYNDDAFYIAENRVYQSSNDEFAGMFGPIQTVAVPTATILGGPDLYVDKGSTINLTCIIKFSPEPPTHIFWYHQDKVLSEETSGGRLKFKTIKSEETKSILLIYDADLLHSGKYSCYPSNTEIASIR
B5: Dpr10 (domain or fragment)
chain: YQRQSVSNNNHNNAEAKPTHAPPSHYPHGHKWNEPYFDLTMPRNITSLVGKSAYLGCRVKHLGNKTVAWIRHRDLHILTVGTYTYTTDQRFQTSYHRDIDEWTLQIKWAQQRDAGVYECQISTQPVRSYSVNLNIVDLIDAETSDIMQQYYNDDAFYIAENRVYQSSNDEFAGMFGPIQTVAVPTATILGGPDLYVDKGSTINLTCIIKFSPEPPTHIFWYHQDKVLSEETSGGRLKFKTIKSEETKSILLIYDADLLHSGKYSCYPSNTEIASIR
B6: Dpr10 V31K (domain or fragment)
chain: YQRQSVSNNNHNNAEAKPTHAPPSHYPHGHKWNEPYFDLTMPRNITSLVGKSAYLGCRVKHLGNKTVAWIRHRDLHILTVGTYTYTTDQRFQTSYHRDIDEWTLQIKWAQQRDAGVYECQISTQPKRSYSVNLNIVDLIDAETSDIMQQYYNDDAFYIAENRVYQSSNDEFAGMFGPIQTVAVPTATILGGPDLYVDKGSTINLTCIIKFSPEPPTHIFWYHQDKVLSEETSGGRLKFKTIKSEETKSILLIYDADLLHSGKYSCYPSNTEIASIR

The target in the assay is T1, DIP-α. The experiment in a line: SPR. (In general: Surface plasmon resonance follows binding to a sensor surface in real time, without labels.)
The molecule B1 came in with a Kd of over 300 µM.
On to B2, for which the Kd was over 300 µM.
To B3 belongs over 500 µM; to B4, 29.2 µM; to B5, 1.3 µM.
Regarding B6, the affinity, expressed as Kd, was 11.3 µM.
